experiment: yeast display, Sf9 membrane polyspecificity reagent, FACS + sequencing; frameworks hold sequencing errors
Outline: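 After 36–48 hours of galactose induction, yeast (Saccharomyces cerevisiae BJ5465) displaying a synthetic nanobody library were stained at 4 °C for 1 hour with 10% biotinylated, detergent-solubilized Sf9 membrane reagent. Streptavidin microbeads enriched the stained cells before FACS sorting into low and high (top ~1%) gates on anti-HA and streptavidin fluorescence. Each clone's polyreactivity label reflects its gate of origin.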

Sequence | polyreactivity (PSR sort gate)
QVQLVESGGGLVQAGGSLRLSCAASGITFWFYAMGWYRQAPGKERELVADITSGGSTYYADSVKGLFTISRDNAKNTVYLQMNSLKPEDTAVYYCAADSWDSLAGLWDWNGPYYYWGQGTQVTVSS | low polyreactivity
QVQLVESGGGLVQAGGSLRLSCAASGSTFQYYAMGWYRQAPGKERELFAVITGAGGTNYADSVKGRFTISRDNAKNTVYLQMNSLKPEDTAVYYCAARSPGTRWGDYDYWGQGTQVTVSS | low polyreactivity
QVQLVESGGGLVQAGGSLRLSCAACGSTFSPNAMGWYRQAPGKERELVAAISGSGASTYYADSVKGRFTISRDNAKNTVYLQMNSLKPEDTAVYYCAADKPGIFSRFDYWGQGTQVTVSS | low polyreactivity
QVQLVESGGGLVQAGGSLRLSCAASGSTFGWYTMGWYRQAPGKERELVATISYGGGITNYADSVKGRFTISRDNAKNTVYLQMNSLKPEDTAVYYCAARGDGVTNPFGYWGQGTQVTVSS | high polyreactivity
QVQLVESGGGLVQAGGSLPLSCAASGSTFAVYAMGWYRQAPGKERELVAAISFSGSTYADSVKGRFTISRDNAKNTVYLQMNSLKPEDTAVYYCAKEYRVFGWWYTKGDYWGQGTQVTVSS | low polyreactivity
QVQLVESGGGLVQAGGSLRLSCAASGRTFRYNAMGWYRQAPGKERELVAAISRSGGRTYYADSVKGRFTISRDNAKNTVYLQMNSLKPEDTAVYYCAAYYYTAGDSSSRYDYWGQGTQVTVSS | high polyreactivity
QVQLVESGGGLVQAGGSLRLSCAASGFLFYYYAMGWYRQAPGKEREFVAAIRWNGGSTYYADSVKGRFTISRDNAKNTVYLQMNSLKPEDTAVYYCAAVWVQTTYADLYKYYYWGQGTQVTVSS | low polyreactivity
QVQLVESGGGLVQAGGSLRLSCAASGIIFDWYAMGWYRQAPGTERELVAAISDSGDTTYYADSVKGRFTISRDNAKNTVYLQMNSLNPEDTAVYYCAARWEYVGYRRRYYRFDYWGQGTQVTVSS | high polyreactivity
QVQLVESGGGLVQAGGSLRLSCAASGSTFSYYTMGWYRQAPGKERELVAAISKSGGITYYADSVKGRFTISRDNAKNTVYLQMNSLKPEDTAVYYCAADGGYYDDDYWGQGTQVTVSS | high polyreactivity
QVQLVESGGGLVQAGGSLRLSCAASGYIFSSYAMGWYRQAPGKERELVAAISWTGGTYYADSVKGRFTISRDNAKNTVYLQMNSLNPEDTAVYYCAVRYKRKGSGYRTNAYDYWGQGTQVTVSS | high polyreactivity
QVQLVESGGGLVQAGGSLRLSCAASGSIFRSYAMGWYRQAPGKERELVAAISSGGRTKYADSVKGRFTISRDNAKNTVYLQMNSLKPEDTAVYYCAARVNVKYYGFYYWGQGTQVTVSS | high polyreactivity
QVQLVESGGGLVQAGGSLRLSCAASGRTVAPYAMGWYRPAPGKERELVAGITYRTGNTYYADSVKGRFTISRDNAKNTVYLQMNSLKPEDTAVYYCAAYSGYYRPRYNFWGQGTQVNVSS | high polyreactivity
QVQLVESGGGLVQAGGSLRLSCAASGYTFRYNALGWYRQAPGKERELVAAISSSGRTYYADSVKGRFTSSRDNAKNTVDLQMNSLKPDATAVYYCNAGPYAGARYRWGYDYWGQGTQVTVSS | high polyreactivity
QDHLVESGGGLVQAGGSLRLSCAASGSTFYFYAMGWYREAPGKERELVAVISSGGRTYYADSVKGRFTISRDNAKNSVYLQMNSLKPVDTGVYYGAASWPSSLTFYYWGHGTQVTVSS | low polyreactivity
QVQLVESGGGLVQAGGSLRLSCAASGSTFYYYTMGWYRQAPGKERELVAAITYSGGSTRYADSVKGRFTISRDNAKNTVYLQMNSLKPEDTAVYYCAAGYYWSSFAFRDMDYWGQGTQVTVSS | high polyreactivity
QVQLVESGGGLVQAGGSLRLSCAASGRIFQTNVMGWYRQAPGKEKELVAAISYRGGTTYYEDSVKARFTISRDNAQNTVYLPMYSLYPEDTAVYYCAALHYRIRRTGMDYWGQGTQVTVSS | low polyreactivity
QDQLVESGVGLVQAGGSHRLSCAASGSIFGWYARGWYRQAPGKERELGATITTGGSTNYADSVKGRFTISRDNAKNTVYLQMNSLKPEDTAVYYCAAGYNTWYGQYGYWGQGTQVTVSS | low polyreactivity
QVQLEESGGRLVQEGGSLRLSCAASGSTFITNAMGWYRQAPGKEWELVAAITYSTGGTYYEDSVKGRFTISRDNAKNTVYLQMYSLKPEDTAVYYCAALLYFFLYDYWGQGTQVTVSS | low polyreactivity
QVQLVDSGGGLVQAGGSLRLSCAASGRIFRGYAMGWYRQAPGKERELVAAITSGGITNYADSVKGRFTISRDNAKNTVYLQMNRLKPEDTAVYYCNTRRGWRDFDYWGQGTQVTVSS | low polyreactivity
QVQLGESGGGLVQEGGSLRLSCAASGSTLQDYDMGWYRQAPGKERELVAAITWSTGTTYYADSVKGRFTISRDNAKNTVYLQMNSLKPEDPAVYYCAVDSYYRATYTYRYDYWGLGTQVTVSS | low polyreactivity

Sequence | polyreactivity (PSR sort gate)
QVQLVESGGGLVQAGGSLRLSFAASGSIFVQYAMRWYRPAPGKERELVAAIDFSDTSTYYADSVKGRFTISRDNAKNTVYLHMNSLKPEDTAVYYCAAEEDSPCRSAIAEEEYWGQGTLVTVSS | low polyreactivity
QVQLVESGGGLVQAGGSLRLSCAASGSIFIVNVMGWYRQAPGKERELVAGITTNGGITYYADSVKGRFTISRDNAKNTVYLQMNSLKPEDTAVYYCATRSASPSSIEMDYWGQGTQVTVSS | low polyreactivity
QVQLVESGGGLDQAGGSLRLSCAASGSTFLYYAMGWYRQAPGKEREFVARITTRVGRTYYADSVKGRFTISRDNAKNTVSLQMNSLKPEDTAVYYCAAVRISRTPRGLYEYWGQGTQVTVSS | high polyreactivity
QVQLVESGGGLVQAGGSLRLSCAASGIILPYYAMGWYRQAPGKEREFVATISSDGTSTYYADSVKGRFTISRDNAKNTVYLQMNSLKPEDTAVYDCAARIRQNPGGDNSWGQGTQVTVSS | low polyreactivity
QVQLVESGGGLVQAGGSLRLSCAASGPNFTKYAMGWYRPAPGKERELVAGISSRGTSTYYADSVKGRFTISRDNAKNTVYLQMNSLKPEDTAVYYCNKDSKSRFTYDYWGQGTQVTVSS | high polyreactivity
QVQLVESGGGLDQAGGSLRLSSAASGFTFRRNAMGWYRQAPGTERELVASITQRGGSTYYADSVKGRFTISRDNAKNTVYLQMNSLKPEATAVYYCAAGPTSRRWYDYWGQGTEVTVSS | high polyreactivity
QVQLVESGGGLVQAGGSLRLSSAASGITLTANAMGCYRQAPGKERELVAAISRGGSTYYADSVKGRFTISRDNAKNTVYLQMNSLKPEDTAVYYCNKAGGYWYAKRDYDYWGQCTQVTVSS | high polyreactivity
QVQLVESGGGLVQAGGSLRLICAASGLTFVYYTKRSYTQAPGKEREFVAGINSGGSTYYADSVKGRFTISRDNAKNTVYVQMNSLKPVDTAVYYCAAVERGYRRFRRIYDYWGQGTQVTVSS | high polyreactivity
QVQLVESGGGLVQAGGSLRLSCAASGFTFYRNAMGWYRQAPGKERELVASISRSGGSTYYADSVKGRFTNSRDNAKNTVYLQMNSLKPEDTAVYYCAADLWWIYPHKYYYWGQGTQVTVSS | high polyreactivity
QVQLVESGGGLVQAGGSLRLSCAASGSTFTVNAMGLYRQAPGKERELVAAINWSGGSTYYADSVKGRFTISRDHAKNTVYLQMNSLKPEDTAVYYCNKDREPYGYWSFDYWGQGTQVTLSS | low polyreactivity
QVQLVESGGGLVQAGGSLRLSCAASGITFYYNAMGWYRQAPGKERELVAAIRSAGSTYYADSVKGRFTISRDNAKNTVYLQMNSLKPEDTAVYYCAAEDGNTDQVRVYWIMDYWGQGTQVTVSS | low polyreactivity
QVQLVESGGGLVQAGGSLRLSCAASGFIFRYYAMGSYRQAPGKERELVAAITSGGASTYYADSVKGRFTISRDNAMNTVYLQMNSLKPDDTAVYYCAADTSSYSEYEYWGQGTQVTVSS | low polyreactivity
QVQLVKSGGGLVQAGGSLRLSCAASGSTFRYYVMGWYRQAPGKERELVATISRGGITKYADSVKGRFTSSRDNAKNTVYLQMHSLKPEDTAVYYCNTRGSRQGKFDYWGQGTQVTVSS | high polyreactivity
QVQLVESGGGLVQAGGSLRLSCAASGNTFSSNAMGWYRQAPGKERELVAGITKSGGRTYYADSVKGRFTISRDNAKNTVYLQMNSLKPEDTAVYYCNRRAGPYSIPYYYWGQGTQVTVSS | high polyreactivity
QVQLVESGGGLVQAGGSLSLSCAASGSILQLYAMGWYRQAPGTERELVAAITESAGSKSYADSVKGRFTISRDNAKITVYLQMNSLKPEDTAVYYCNAEYSAYSGFDVEWSLDYDYWGQGTQVTVSS | low polyreactivity
QDQLVESGGGLVQAGGSLRLSCAASGFTFGWYAMGWYRQAPGKERELVAAITSRGGSTYYPDSVKGRFTISRDNAKNTVYLQMNSLKPEDTAVYYCAALYGWSGYDYWGQGTQVTVSS | high polyreactivity
QVHLVESGGGLVQAGGSLRLSCAASGSTFWKYVMGWYILAPGKERELVAAITSRGGSTYADSVKGRFTISRDNAKNTVYLQMNSLKTEDTAVYYCAATKFWYYGYDYWGQGTQVTVSS | low polyreactivity
QVQLVESGGGLVQAGGSLRLSCAASGSTFTWYAMGWYRQAPGKERELVADISYGGGSTYYADSVKGRFTISRDNAKNTVYLQMNSLKPEDTAVYYCAVDDGFAYSYDWTYRYAEYYYWGQGTQVTVSS | low polyreactivity
QVQLVESGGGLVQAGGSLRLSCAASGRIVKANAMGWYRQAPGKERELVAAIRESGGTTYYADSVKGRFTISRDNATNTVYLQMNSLKPEDTAVYYCAAAYRDTQYNYYYWGQGTQVTVSS | high polyreactivity
QVQLVESGGGLVQAGGSLRLSCAASGLTFYTYAMGWYIQAPGTERELVAAISSGGSTNYADSVKGRFTISRDNAKNTVYLQMNSLKPEDTAVYYCAADPSYYTYFSFDLSESDYWGQGTQVTVSS | low polyreactivity
